Reference: the supplement of paper PMC9170038

Experiments:
MS2 coat protein [1] = assay: apparent KD of MS2 coat protein, switch OFF state (with FMN for OFF switches, without FMN for ON switches); designed switch direction (-1 OFF switch, 1 ON switch): 1; higher = weaker reporter binding; conditions: FMN input: 0 or 200 uM; Eterna round: R93 (includes R88 designs)
How it was run: (§1)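 In 100 mM Tris-HCl pH 7.5 with 80 mM KCl and 4 mM MgCl2, and without or with constant ligand, SNAP-549-labelled MS2 coat protein was titrated in twofold steps from 0.7 or 1.5 nM to 3 µM. Per-step times went from 0.8–1.5 h down to 10–20 min. The RNA switches were transcribed on-chip from Illumina sequencing clusters, and apparent KD is the per-design median of normalised cluster binding-curve fits.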

MS2 coat protein [2] = assay: apparent KD of MS2 coat protein, switch ON state; designed switch direction (-1 OFF switch, 1 ON switch): 1; higher = weaker reporter binding; conditions: FMN input: 0 or 200 uM; Eterna round: R93 (includes R88 designs)
How it was run: as §1

| Sequence | apparent KD of MS2 coat protein (MS2 coat protein [1]) | apparent KD of MS2 coat protein (MS2 coat protein [2]) |
| --- | --- | --- |
| AGAAAUAAACCUCAGGAUAUGGGUAAGAAAACAUGAGGAUCACCCAUGUAAAAGAAAAUAAAAAACCAGAAGGGAGAAAAUAAAG [Reversing G segment in JL's winner (80%) Variant 2] | 41.3 nM | 31.3 nM |
| AAAGACACAGUGCAGGAUAUGGUAAUAGUCACAUGAGGAUCACCCAUGUUCUUUUAUAAGAACGAUCAGAAGGGCGGUGAAAAAA [SameState2 Malc#12] | 295 nM | 111 nM |
| AAAACACAUGAGGAUCACCCAUGUAAAAACAUGGGAGGAUAUGCAUGGAAAACAUGCUAUGCAGAAGGCUCAUGUG [SS1 - 6] | 17.2 nM | 14.9 nM |
| AGCAUAGACAGAGAGGAUAUCCACGAGACAACAUGAGGAUCACCCAUGUGAUAGAGAAUACGAUGGGAGAAGGCUCGCGGUACGA [Topaz 50] | 61.3 nM | 13.9 nM |
| AAAGAAAAACUAGAGGAUAUCUGAGUGGUAACAUGAGGAUCACCCAUGUGAAGAAAGGAACAUGAGGAGAAGGCUAGAAGAAAAA [JL Nando mod 13] | 44.2 nM | 23.8 nM |
| AAUAUAUUAAGUGAGGAUAUCAAGAAAAAAACAUGAGGAUCACCCAUGUGGGAAACACGGUAGGGUGAGAAGGUACUUAAUAUAU [Samwise Clockwise 20 - Jieux - Same State 2] | 27.6 nM | 504 nM |
| AGGAGACAUGAGGAUCACCCAUGUGAGAAGAGGCGAGGAUAUCGAAAGAAAGAAGAGAAACGAGAAGGCGCGAGAA [salish99-SS1-017] | 30.3 nM | 15 nM |
| GAAAAACAUGAGGAUCACCCAUGUGUAAACAUGGGAGGAUAUACAAAGACGUAAGUCAAAGUAGAAGGCCUAAGAG [Garnet 37] | 15.3 nM | 128 nM |
| AGGAAACAUGAGGAUCACCCAUGUAAAAAAUAUGGAGGAUAUGGAAACACGAAAGUGAAACCAGAAGGCUAAAAAA [77%, Mat - Mod of Eli, 24] | 26.9 nM | 17 nM |
| UAAAAACAUGAGGAUCACCCAUGUGAGAACAUGGGAGGAUAUACGAAGACGAAAGUCAAAGUAGAAGGCCUAAAAU [Mat - Same State 1 - Mod - D171] | 15.6 nM | 302 nM |
| AAAGAAAAACUAGAGGAUAUUUGAGUGGUAACAUGAGGAUCACCCAUGUGAAGAAAAGAACAUGAGGAGAAGGCUAGAAGAAAAA [JL Nando mod 15] | 42.3 nM | 23.1 nM |
| UAUCAUUACACGAAGGAUAUCGAUAAUUGAACAUGAGGAUCACCCAUGUGAUAUAUUUUACAGUUCGAGAAGGUCGAGGGUGAAG [JR_SS002_Sub705] | 32.4 nM | 16.6 nM |
| CGAAAGGAGAGAGAGGAUAUCCAAAGGAAAACAUGAGGAUCACCCAUGUAGAAGGUAGGAGAUUGGGAGAAGGCUCAAGAAAGAG [salish99-ss2-144] | 27.5 nM | 23 nM |
| AAAUAUAAAAACUAGGAUAUACUAAAAUAAACAUGAGGAUCACCCAUGUAAAAAAAAAAACUCAUGUAGAAGGAGUAAAUAUAAA [ss2 9th] | 13.8 nM | 22.6 nM |
| AGAAGACAUGAGGAUCACCCAUGUGGGAAUAUGGGAGGAUAUACAAAGACGAGAGUCAGAGUAGAAGGCCUAGGAC [salish99-ss1-94] | 81 nM | 30.5 nM |
| AAAAUACAUGAGGAUCACCCAUGUGAAAAUAUGGAAGGAUAUCAAUGCAAAAAAAAGCAUUGAGAAGGUCCAAAAA [SS! 1 MT 8] | 26.9 nM | 16.7 nM |
| AAGAAACAUGAGGAUCACCCAUGUGAUAAUAUGGGAGGAUAUACGAAGUCGAAAGUCGAAGUAGAAGGCCUAAGAA [Garnet 41] | 186 nM | 49 nM |
| CUGGACCUAGGAUAGGAUAUGUGAAUAAUUACAUGAGGAUCACCCAUGUCCAUUUAUAUGGGAACAUAGAAGGGUUCUGGUUAAG [Mat - Same state - Malcolm Mod - D146] | 66.1 nM | 42.2 nM |
